These results are taken from article doi:10.1101/2025.04.28.650926 (bioRxiv, 2025).

In data set [1] the target is T1, HSF1-WT monomer (SEC peak 3) (human, UniProt Q00613 1-529). As to the kind of experiment: fluorescence polarization. On the technique in general: Polarisation of emitted light reports the rotation of a fluorescent probe.
The target of data set [2] is HSF1-ΔTAD (human, UniProt Q00613 1-409). The data set can be described thus: fluorescence polarization.
The target of data set [3] is HSF1-WT trimer/oligomer (SEC peak 1) (human, UniProt Q00613 1-529). As to the kind of experiment: fluorescence polarization.
Data set [4] addresses T2, HSF1-ΔLZ4-TAD (human, UniProt Q00613 1-383). The data set can be described thus: fluorescence polarization.
Data set [5] concerns the target HSF1-LZ4m (HSF1-CT) (human, UniProt Q00613 1-529, M391K;L395P;L398R). As to the kind of experiment: fluorescence polarization.
Data set [6] concerns the target HSF1-DBD (human, UniProt Q00613 1-123). As to the kind of experiment: fluorescence polarization.
Data set [7] deals with T1, HSF1-WT monomer (SEC peak 3). The data set can be described thus: fluorescence polarization. This is another data set of the same source.
Data set [8] deals with HSF1-ΔLZ1-3 (HSF1-CM) (human, UniProt Q00613 1-129+204-529, internal_change). The data set can be described thus: fluorescence polarization.
Data set [9] deals with T2, HSF1-ΔLZ4-TAD. As to the kind of experiment: fluorescence polarization. The source holds these as a separate data set.
Data set [10] concerns the molecule itself. The data set can be described thus: native gel or EMSA. In general terms: Mobility shift assays separate free from complexed probe on a gel.

Read-outs that look alike come from different tables or passages of the source.

Sequence of HSF1-WT trimer/oligomer (SEC peak 1) (Q00613 whole entry): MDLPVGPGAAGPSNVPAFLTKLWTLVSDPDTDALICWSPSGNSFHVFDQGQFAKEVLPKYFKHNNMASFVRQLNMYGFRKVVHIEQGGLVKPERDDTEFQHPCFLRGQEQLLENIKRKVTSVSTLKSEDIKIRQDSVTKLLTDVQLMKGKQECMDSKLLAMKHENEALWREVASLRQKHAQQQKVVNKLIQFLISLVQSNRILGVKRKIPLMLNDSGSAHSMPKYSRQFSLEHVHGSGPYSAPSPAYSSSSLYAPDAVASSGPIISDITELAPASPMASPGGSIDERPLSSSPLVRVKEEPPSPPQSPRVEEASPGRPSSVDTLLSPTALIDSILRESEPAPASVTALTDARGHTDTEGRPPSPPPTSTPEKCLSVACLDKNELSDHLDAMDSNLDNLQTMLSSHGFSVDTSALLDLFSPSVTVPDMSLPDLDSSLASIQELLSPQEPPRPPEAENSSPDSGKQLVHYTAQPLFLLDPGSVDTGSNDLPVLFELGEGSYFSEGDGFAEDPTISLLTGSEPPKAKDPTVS

B1: HSE (canonical three-site) (dsDNA)
DNA 1: CCTGGAATATTCCCGAACTGGC
DNA 2: GCCAGTTCGGGAATATTCCAGG
A word on the Kd: it is a measure of binding affinity in units of concentration. Lower therefore signals a tighter complex. Take B1: the equilibrium dissociation constant (Kd) was found to be 56.7 ± 4.62 nM in data set [1]; 60.3 ± 1.13 nM in [2]; 17.1 ± 6.28 nM in data set [3]; 22.6 ± 1.36 nM in data set [4]; 25.1 ± 8.09 nM in [5]; 85.3 ± 6.29 nM in data set [6]. For the same molecule, the Kd was 7.98 ± 1.43 nM in [7], 6.57 ± 1.39 nM in data set [8] and 12.9 ± 0.335 nM in data set [9].

B2: HSF1-LZ4mutant (LZ4m), constitutively trimeric/ oligomeric (CT) (natural protein, human, UniProt Q00613 1-529, looked up)
chain: MDLPVGPGAAGPSNVPAFLTKLWTLVSDPDTDALICWSPSGNSFHVFDQGQFAKEVLPKYFKHNNMASFVRQLNMYGFRKVVHIEQGGLVKPERDDTEFQHPCFLRGQEQLLENIKRKVTSVSTLKSEDIKIRQDSVTKLLTDVQLMKGKQECMDSKLLAMKHENEALWREVASLRQKHAQQQKVVNKLIQFLISLVQSNRILGVKRKIPLMLNDSGSAHSMPKYSRQFSLEHVHGSGPYSAPSPAYSSSSLYAPDAVASSGPIISDITELAPASPMASPGGSIDERPLSSSPLVRVKEEPPSPPQSPRVEEASPGRPSSVDTLLSPTALIDSILRESEPAPASVTALTDARGHTDTEGRPPSPPPTSTPEKCLSVACLDKNELSDHLDAKDSNPDNRQTMLSSHGFSVDTSALLDLFSPSVTVPDMSLPDLDSSLASIQELLSPQEPPRPPEAENSSPDSGKQLVHYTAQPLFLLDPGSVDTGSNDLPVLFELGEGSYFSEGDGFAEDPTISLLTGSEPPKAKDPTVS
Consider B2, for which the binding result in data set [10] is “binds”.

B3: mHSE (mutant HSE) (dsDNA)
DNA 1: CCTGGCGTAGTCCCCGCCTGGC
DNA 2: GCCAGGCGGGGACTACGCCAGG
In data set [7], B3 returned a dissociation constant Kd of 84.8 ± 14.2 nM.
